This assay has as its target monomeric red fluorescent protein (mRFP). In words: native MS; ESI-TWIMS-MS (nanoESI, Synapt HDMS), purified protein in 50 mM ammonium acetate; gas phase; self-association.

One may read the stoichiometry N as a count of units in the complex or per binding partner. “monomeric red fluorescent protein (mRFP)” had a stoichiometry N of 2.

These data come from publication PMC3905015.
